# Publication PMC6443190, “Regulation of anthocyanin accumulation via MYB75/HAT1/TPL-mediated transcriptional repression” (PLoS Genetics, 2019)
# B1: HIS-MYB75 (natural protein, Arabidopsis thaliana, UniProt Q9FE25 1-248, looked up)
# chain: MEGSSKGLRKGAWTTEEDSLLRQCINKYGEGKWHQVPVRAGLNRCRKSCRLRWLNYLKPSIKRGKLSSDEVDLLLRLHRLLGNRWSLIAGRLPGRTANDVKNYWNTHLSKKHEPCCKIKMKKRDITPIPTTPALKNNVYKPRPRSFTVNNDCNHLNAPPKVDVNPPCLGLNINNVCDNSIIYNKDKKKDQLVNNLIDGDNMWLEKFLEESQEVDILVPEATTTEKGDTLAFDVDQLWSLFDGETVKFD
# notes: MYB75, Arabidopsis thaliana, At1g56650; full-length, in pET28a; pET28a; also called full-length MYB75
# B2: MBP-MYB75 (natural protein, Arabidopsis thaliana, UniProt Q9FE25 1-248, looked up)
# chain: MEGSSKGLRKGAWTTEEDSLLRQCINKYGEGKWHQVPVRAGLNRCRKSCRLRWLNYLKPSIKRGKLSSDEVDLLLRLHRLLGNRWSLIAGRLPGRTANDVKNYWNTHLSKKHEPCCKIKMKKRDITPIPTTPALKNNVYKPRPRSFTVNNDCNHLNAPPKVDVNPPCLGLNINNVCDNSIIYNKDKKKDQLVNNLIDGDNMWLEKFLEESQEVDILVPEATTTEKGDTLAFDVDQLWSLFDGETVKFD
# notes: MYB75, Arabidopsis thaliana, At1g56650; full-length, in pMAL-C2X; pMAL-C2X; also called full-length MYB75
# B3: HAT1 C-terminal fragment (pull-down fragment) (domain or fragment, Arabidopsis thaliana, UniProt P46600 234-282, looked up)
# chain: SPPTTLLMCPSCERVAGPSSSNHNQRSVSLSPWLQMAHGSTFDVMRPRS
# notes: HAT1, Arabidopsis thaliana, At4g17460; also called C-terminus of HAT1; not shown: 6xHis (inferred from the set-up of the methods)
# Experiments:
# Conditions in all cases: both partners purified
# [1] = target: T1, MBP-HAT1 (Arabidopsis thaliana, UniProt P46600 1-282); assay: pull-down; Ni-NTA beads with 5 ug HIS protein incubated with 5 ug MBP protein; 150 mM NaCl, 20 mM Tris, 0.2% Triton X-100, pH 8.0, 4 C, 2 h; anti-MBP blot
# T1 construct: HAT1, Arabidopsis thaliana, At4g17460; full-length, in pMALc-B; pMALc-B; also called full-length HAT1
# T1 sequence (looked up): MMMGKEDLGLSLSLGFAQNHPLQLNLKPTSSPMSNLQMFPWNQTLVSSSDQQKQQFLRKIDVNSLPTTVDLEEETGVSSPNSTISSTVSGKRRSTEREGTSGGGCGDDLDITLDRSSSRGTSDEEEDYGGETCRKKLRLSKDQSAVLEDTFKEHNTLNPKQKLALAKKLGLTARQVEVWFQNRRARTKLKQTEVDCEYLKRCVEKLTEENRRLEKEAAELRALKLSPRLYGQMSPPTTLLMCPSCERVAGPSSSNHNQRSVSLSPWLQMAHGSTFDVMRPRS
# [2] = target: T2, HIS-HAT1 (Arabidopsis thaliana, UniProt P46600 1-282); assay: pull-down; competitive HIS pull-down: 5 ug MBP-TT8 or MBP-EGL3 mixed with 5, 10 or 20 ug HIS-HAT1, on Ni-NTA beads with 5 ug HIS-MYB75; 150 mM NaCl, 20 mM Tris, 0.2% Triton X-100, pH 8.0, 4 C, 2 h; anti-MBP blot
# T2 construct: HAT1, Arabidopsis thaliana, At4g17460; full-length, in pET28a; pET28a; also called full-length HAT1
# T2 sequence (looked up): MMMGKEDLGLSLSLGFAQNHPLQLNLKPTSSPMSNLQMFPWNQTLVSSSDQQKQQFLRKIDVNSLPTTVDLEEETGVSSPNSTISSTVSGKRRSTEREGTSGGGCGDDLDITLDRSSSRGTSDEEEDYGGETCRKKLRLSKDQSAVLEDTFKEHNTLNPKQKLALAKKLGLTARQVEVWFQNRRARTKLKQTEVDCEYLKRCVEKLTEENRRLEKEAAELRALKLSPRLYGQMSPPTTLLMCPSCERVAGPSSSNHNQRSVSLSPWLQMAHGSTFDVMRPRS
# [3] = target: T3, MBP-TT8 (Arabidopsis thaliana, UniProt Q9FT81 1-518); assay: as above
# T3 construct: TT8, Arabidopsis thaliana, At4g09820; pMAL-C2X
# T3 sequence (looked up): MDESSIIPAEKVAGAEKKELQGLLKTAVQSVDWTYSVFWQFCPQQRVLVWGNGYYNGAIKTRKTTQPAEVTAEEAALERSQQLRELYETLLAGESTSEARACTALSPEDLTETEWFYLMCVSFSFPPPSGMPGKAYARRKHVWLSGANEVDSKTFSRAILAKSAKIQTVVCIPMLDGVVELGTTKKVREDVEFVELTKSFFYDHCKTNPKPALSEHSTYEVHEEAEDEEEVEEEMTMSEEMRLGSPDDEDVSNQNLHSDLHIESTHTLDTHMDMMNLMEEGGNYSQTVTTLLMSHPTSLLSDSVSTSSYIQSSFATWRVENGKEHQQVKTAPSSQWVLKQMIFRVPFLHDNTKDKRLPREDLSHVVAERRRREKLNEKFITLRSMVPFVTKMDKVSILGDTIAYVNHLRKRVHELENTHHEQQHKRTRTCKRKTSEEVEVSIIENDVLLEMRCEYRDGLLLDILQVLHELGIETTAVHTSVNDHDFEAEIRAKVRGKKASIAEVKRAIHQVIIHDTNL
# [4] = target: T4, MBP-EGL3 (Arabidopsis thaliana, UniProt Q9CAD0 1-596); assay: as above
# T4 construct: EGL3, Arabidopsis thaliana, At1g63650; pMAL-C2X
# T4 sequence (looked up): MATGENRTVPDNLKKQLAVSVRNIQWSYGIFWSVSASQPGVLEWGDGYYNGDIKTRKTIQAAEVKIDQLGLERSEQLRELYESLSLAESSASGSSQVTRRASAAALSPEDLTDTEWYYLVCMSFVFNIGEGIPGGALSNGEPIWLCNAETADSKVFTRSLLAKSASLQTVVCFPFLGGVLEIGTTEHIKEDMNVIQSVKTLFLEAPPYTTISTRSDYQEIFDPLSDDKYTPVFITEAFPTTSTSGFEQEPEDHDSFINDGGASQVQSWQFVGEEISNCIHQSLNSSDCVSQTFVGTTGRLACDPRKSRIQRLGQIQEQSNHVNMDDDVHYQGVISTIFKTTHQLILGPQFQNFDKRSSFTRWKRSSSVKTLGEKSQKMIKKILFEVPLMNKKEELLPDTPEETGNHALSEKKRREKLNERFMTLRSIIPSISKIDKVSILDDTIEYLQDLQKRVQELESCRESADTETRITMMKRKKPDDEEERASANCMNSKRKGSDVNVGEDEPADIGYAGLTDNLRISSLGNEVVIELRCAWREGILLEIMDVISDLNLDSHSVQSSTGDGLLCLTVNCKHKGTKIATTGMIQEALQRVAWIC
# [5] = target: T2, HIS-HAT1; assay: pull-down; Ni-NTA beads with 5 ug HIS protein incubated with 5 ug MBP protein; 150 mM NaCl, 20 mM Tris, 0.2% Triton X-100, pH 8.0, 4 C, 2 h; anti-MBP blot
# [6] = target: B2; assay: as above
binder,measurement,setting,value
B1,binding result,[1],binds
same,binding result,[2],binds
same,binding result,[3],binds
same,binding result,[4],binds
B2,binding result,[5],binds
B3,binding result,[6],binds
